“Also recorded” adds a separate entry of the source.
Experiments:
HLA-A2 molecule = biological target: T1, HLA-A2 molecule (Homo sapiens, UniProt P04439, D140Y/D185E/D98H/E176V/E277Q/G131W/G231S/I119V/I121R/I166T/I218V/L300P/L318F/N151K/N90K/P208A/P217A/Q86G/Q94H/R138H/R169H/T345S); test: T2 binding assay (HLA-A2 up-regulation on TAP-deficient T2 cells); settings: for binding affinity for the HLA-A2 molecule (in words): T2 binding assay; for FI0.5: peptide concentration that increases HLA-A2.1 expression by 50% over no peptide
T1 construct: The T2 cell line is deficient for TAP1 and TAP2 transporter proteins and expresses low levels of HLA-A2; endogenous in cells; host or cells: T2 cell line (TAP1/TAP2-deficient)
Procedure: FIG. 1 is a graph showing binding affinity of POTE peptides to HLA-A2 molecules. Peptides were dissolved in DMSO in double-distilled water and different concentrations of peptides were added into the culture of TAP-deficient T2 cells. After overnight culture of the cells in medium supplemented with β2-microglobulin, cells were stained with anti-HLA-A2. HLA-A2 expression was quantified as fluorescence index (FI) according to the following formula: FI=[(mean fluorescence intensity with peptide−mean fluorescence intensity without peptide)/mean fluorescence intensity without peptide]. Background fluorescence without BB7.2 was subtracted for each individual value. To compare the different peptides, FI0.5 (the peptide concentration that increases HLA-A2.1 expression by 50% over no peptide control background) was calculated from the titration curve for each peptide.
FIGS. 2A-2C are graphs showing binding affinity of substituted POTE peptides to HLA-A2 molecules. Shown are binding affinities of the substituted POTE 252 peptides (FIG. 2A), the substituted POTE 553 peptides (FIG. 2B) and the substituted POTE 323 peptides (FIG. 2C) to HLA-A2 molecules. Different concentrations of peptides were added into the culture of TAP-deficient T2 cells. After overnight culture of the cells in medium supplemented with β2-microglobulin, cells were stained with anti-HLA-A2 antibody.
Peptide binding capacity to the HLA-A2 molecule was measured by using the T2 cell line according to a protocol described previously (Peters et al., Bioinformatics 19(14):1765-1772, 2003). T2 cells (3×10^5 cells/well) were incubated overnight in 96-well plates with culture medium (1:1 mixture of RPMI 1640/Eagle-Hank's amino acid containing 2.5% fetal bovine serum, 100 U/ml penicillin, and 100 μg/ml streptomycin) with 10 μg/ml β2-microglobulin (Sigma) and different titrated concentrations of peptides (starting from 100 μM with 2-fold serial dilution) as shown in the figures to determine the concentration giving a 50% increasing in binding. Cells were washed once with cold HBSS containing 0.1% BSA and incubated for 30 minutes at 4° C. with anti-HLA-A2.1 BB7.2 monoclonal antibody (1:40 dilution from hybridoma supernatant). After washing, cells were stained with FITC-labeled goat anti-mouse immunoglobulin (BD, San Jose, Calif.), and the level of HLA expression was measured by flow cytometry. HLA-A2 expression was quantified as fluorescence index (FI) according to the following formula: FI=[(geometric mean fluorescence intensity with peptide-geometric mean fluorescence intensity without peptide)/geometric mean fluorescence intensity without peptide]. Background fluorescence without BB7.2 was subtracted for each individual value. To compare the different peptides, FI0.5, the peptide concentration that increases HLA-A2.1 expression by 50% over no peptide control background, was calculated from the titration curve for each peptide.

[1] = test system: IFN-γ secreting spleen cells; test: ex vivo IFN-γ ELISPOT assay on splenocytes of peptide-immunized AAD mice; assay type: in vivo; settings: for IFN-γ response (ELISPOT spots) on stimulation with the immunizing peptide: AAD mice immunized s.c., splenocytes pooled from three mice two weeks after boost
Procedure: (§1) FIGS. 3A and 3B are graphs showing immunogenicity of the wild type and enhanced POTE 252 epitopes in AAD mice. AAD mice were immunized subcutaneously with a mixture of peptide and cytokines in adjuvant as described in Example 1. (FIG. 3A) Two weeks after the second boost, splenocytes pooled from three mice were restimulated with splenocytes of naïve AAD mice pulsed with 1.0 μM of each peptide at different effector to target (E/T) ratios. Cells were cultured in anti-mouse IFN-γ antibody coated ELISPOT™ plates. After overnight culture, biotinylated anti-mouse IFN-γ antibodies were added to each well. ELISPOT™ substrates were added to develop the color and spots were counted by an ELISPOT™ reader (AID ELISPOT™ reader system). Figures show numbers of spots per million cells. (FIG. 3B) CTL cross-reactivity on each peptide. Two weeks after the second boost, pooled spleen cells from three mice were restimulated with irradiated splenocytes pulsed with 1.0 μM of peptide for 7 days. In a 4-hour ^51Cr release assay, CIR.AAD cells were pulsed with 1.0 μM of peptide and labeled with ^51Cr. After washing three times, target cells were mixed with different numbers of effector cells and then cultured for 4 hours before harvesting.
(§2) FIGS. 4A-4D are graphs showing immunogenicity of the wild type and enhanced POTE 553 epitopes in AAD mice. AAD mice were immunized subcutaneously with a mixture of peptide and cytokines in adjuvant. (FIGS. 4A and 4B) Two weeks after the second boost, splenocytes pooled from three mice were restimulated with splenocytes of naïve AAD mice pulsed with 10 nM to 1.0 μM of each peptide at different E/T ratios. Cells were cultured in anti-mouse IFN-γ antibody coated ELISPOT™ plates. After overnight culture, biotinylated anti-mouse IFN-γ antibodies were added to each well. ELISPOT™ substrates were added to develop color and spots were counted by an ELISPOT™ reader (AID ELISPOT™ reader system). Figures show numbers of spots per million cells. (FIGS. 4C and 4D) CTL cross-reactivity on each peptide. Two weeks after the second boost, pooled spleen cells from three mice were restimulated with irradiated splenocytes pulsed with 1.0 μM of peptide for 7 days. In a 4-hour ^51Cr release assay, CIR.AAD cells were pulsed with 1.0 μM of peptide and labeled with ^51Cr. After washing three times, target cells were mixed with different numbers of effector cells and then cultured for 4 hours before harvesting.
(§3) FIGS. 5A and 5B are graphs showing immunogenicity of the POTE 272 epitope in AAD mice. AAD mice were immunized subcutaneously with a mixture of peptide and cytokines in adjuvant. (FIG. 5A) Two weeks after the second boost, splenocytes pooled from three mice were restimulated with splenocytes of naïve AAD mice pulsed with 1.0 μM POTE 272 peptide at different E/T ratios. Cells were cultured in anti-mouse IFN-γ antibody coated ELISPOT™ plates. After overnight culture, biotinylated anti-mouse IFN-γ antibodies were added in each well. ELISPOT™ substrates were added to develop color and spots were counted by an ELISPOT™ reader (AID ELISPOT™ reader system). Figures show numbers of spots per million cells. (FIG. 5B) CTL reactivity on POTE 272 peptide. Two weeks after the second boost, pooled spleen cells from three mice were restimulated with irradiated splenocytes pulsed with 1.0 μM POTE 272 peptide for 7 days. In a 4-hour ^51Cr release assay, CIR.AAD cells were pulsed with 1.0 μM POTE 272 peptide and labeled with ^51Cr. After washing three times, target cells were mixed with different numbers of effector cells and then cultured for 4 hours before harvesting.
(§4) FIGS. 6A and 6B are graphs showing immunogenicity of the wild type and enhanced POTE 323 epitopes in AAD mice. AAD mice were immunized subcutaneously with a mixture of peptide and cytokines in adjuvant. (FIG. 6A) Two weeks after the second boost, splenocytes pooled from three mice were restimulated with splenocytes of naïve AAD mice pulsed with 1.0 μM of each peptide at different E/T ratios. […]

[2] = test system: C1R.AAD cells pulsed with peptide; test: 4-hour 51Cr release CTL assay after one week in vitro stimulation; assay type: cell-based, human; settings: CTLs from immunized AAD mice, restimulated 7 days with 1.0 μM peptide; targets pulsed with 1.0 μM peptide
Procedure: as §1, §2, §3, §4

[3] = wild-type peptides, Table 1 / FIG. 1
[4] = substituted peptides and their wild types, Table 2 / FIGS. 2A-2C

FI0.5 (HLA-A2 molecule; [4]) [µM]	Sequence	IFN-γ response (ELISPOT spots) on stimulation with the immunizing peptide [1]	CTL lysis of peptide-pulsed target cells [2]	other results
2.6	KILEEIESV [POTE 553-561, unmodified 9-mer peptide, residues 553-561 of human POTE]	did not induce any significant IFN-γ responses	not any significant detectable target cell lysis	binding affinity for the HLA-A2 molecule (in words) (HLA-A2 molecule): strongest HLA-A2 binding affinity; also recorded: intermediate binders; FI0.5 (HLA-A2 molecule; [3]): ~5.6 µM
0.3	LLLEQNVDV [POTE 323-331, unmodified 9-mer peptide, residues 323-331 of human POTE]	induced some IFN-γ responses after stimulation with the identical peptide	did not lyse target cells pulsed with POTE 323	binding affinity for the HLA-A2 molecule (in words) (HLA-A2 molecule): intermediate binders; also recorded: strongest binding affinity; FI0.5 (HLA-A2 molecule; [3]): ~0.8 µM; IFN-γ response over background level ([1]; AAD mice, ELISPOT): less than 2 fold

Continued, sequence first:

Sequence	FI0.5 (HLA-A2 molecule; [4]) [µM]	IFN-γ response (ELISPOT spots) on stimulation with the immunizing peptide [1]	CTL lysis of peptide-pulsed target cells [2]	other results
GLTPLLLGV [POTE 272-280, unmodified 9-mer peptide, residues 272-280 of human POTE]		induced significant IFN-γ responses	lysed target cells pulsed with POTE 272	binding affinity for the HLA-A2 molecule (in words) (HLA-A2 molecule): strongest HLA-A2 binding affinity; FI0.5 (HLA-A2 molecule; [3]): ~0.9 µM
KIFEEIESV [POTE 553-3F, modified POTE 553 peptide, phenylalanine at position 3]	0.3			
KILEEIASV [POTE-553-7A, modified POTE 553 peptide, alanine at position 7]	0.2			
KLAAKALLL [POTE 252-3A, modified POTE 252 peptide, alanine at position 3]	16.9			
KLFAKALLL [POTE 252-3F, modified POTE 252 peptide, phenylalanine at position 3]	1.5			
KLLEEIESV [POTE 553-2L, modified POTE 553 peptide, leucine at position 2]	0.1	induced some extent of IFN-γ responses only after stimulation with the same peptide	did not lyse target cells pulsed with POTE 553-2L	IFN-γ ELISPOT cross-reactive response to the wild type peptide ([1]; AAD mice immunized s.c. with the enhanced peptide): no cross-reactive response to wild type peptide was detected
KLMAKAALL [POTE 252-7A, modified POTE 252 peptide, alanine at position 7]	4			
LLAEQNVDV [POTE 323-3A, modified POTE 323 peptide, alanine at position 3]	0.4			
LLLEQNADV [POTE 323-7A, modified POTE 323 peptide, alanine at position 7]	2.78			
VLMLLEHGA [POTE 222-230]				binding affinity for the HLA-A2 molecule (in words) (HLA-A2 molecule): weak binder; FI0.5 (HLA-A2 molecule; [3]): approximately 42.4 μM
YLLEQNVDV [POTE 323-1Y, modified POTE 323 peptide, tyrosine at position 1]	0.25			
YLMAKALLL [POTE 252-1Y, modified POTE 252 peptide, tyrosine at position 1]	0.9	no significant IFN-γ responses were detected	not detectable	

Source: patent US9394352B2, “Immunogenic POTE peptides and methods of use” (The United States of America, as represented by the …, priority 2010, dated 2016)
